Experimental data published in article PMC3757403.

Target: de2-7EGFR (UniProt P00533)
Assay: non-reducing SDS-PAGE and Western blot of disulfide-bonded dimers; cells washed and lysed in RIPA buffer with 10 mM iodoacetamide; non-reducing Laemmli buffer; blot probed with mAb806

Q: With “de2-7EGFR (from UniProt P00533 25-1210) (receptor)” as the substance, how does the dimer as proportion of the total species read?
A: The dimer as proportion of the total species was 25%.
